Test results: US20040170976A1, “Solubility reporter gene constructs” (priority 2000, published 2004)

B1: TM0556: T. maritima 3-isopropylmalate dehydrogenase (leuB) (protein, UniProt Q9WZ26 1-354, looked up)
3-isopropylmalate …: MKIAVLPGDGIGPEVVREALKVLEVVEKKTGKTFEKVFGHIGGDAIDRFGEPLPEETKKICLEADAIFLGSVGGPKWDDLPPEKRPEIGGLLALRKMLNLYANIRPIKVYRSLVHVSPLKEKVIGSGVDLVTVRELSYGVYYGQPRGLDEEKGFDTMIYDRKTVERIARTAFEIAKNRRKKVTSVDKANVLYSSMLWRKVVNEVAREYPDVELTHIYVDNAAMQLILKPSQFDVILTTNMFGDILSDESAALPGSLGLLPSASFGDKNLYEPAGGSAPDIAGKNIANPIAQILSLAMMLEHSFGMVEEARKIERAVELVIEEGYRTRDIAEDPEKAVSTSQMGDLICKKLEEIW
B2: TM0688: T. maritima glyceraldehyde-3-phosphate dehydrogenase (gap) (protein, UniProt P17721 2-333, looked up)
Glyceraldehyde-3-phosphate …: ARVAINGFGRIGRLVYRIIYERKNPDIEVVAINDLTDTKTLAHLLKYDSVHKKFPGKVEYTENSLIVDGKEIKVFAEPDPSKLPWKDLGVDFVIESTGVFRNREKAELHLQAGAKKVIITAPAKGEDITVVIGCNEDQLKPEHTIISCASCTTNSIAPIVKVLHEKFGIVSGMLTTVHSYTNDQRVLDLPHKDLRRARAAAVNIIPTTTGAAKAVALVVPEVKGKLDGMAIRVPTPDGSITDLTVLVEKETTVEEVNAVMKEATEGRLKGIIGYNDEPIVSSDIIGTTFSGIFDATITNVIGGKLVKVASWYDNEYGYSNRVVDTLELLLKM
B3: TM0574: T. maritima S-adenosylmethionine tRNA ribosyltransferase (queA) (protein, UniProt Q9WZ44 1-335, looked up)
S-adenosylmethionine:tRNA …: MKVSEFDYELPPELIAQEPVEPRDASRLMVLHRKTQRIEHRIFREIIEYLEPGDLLVLNVSKVIPARLYARKKTGASIEILLIERLEEGIWKCLVRPGQKVKKGTELVIDEDLSAVCLGRGEDGTRILKFQPQDDRLIFEKGRTPLPPYIKNEVPLERYQTVYAKEEGSVAAPTAGLHFTPELIEKLKKKGVQFAEVVLHVGIGTFRPVKVEEVEKHKMHEEFYQVPKETVRKLRETRERGNRIVAVGTTTVRTLETIARLPEQEEYVGKTDLFIYPPFEFKLVDALVTNFHLPRSTLLMLVAAFAGKDFVMEAYREAVKRRYRFFSFGDAMLIL
B4: TM0294: T. maritima glutamate 5-kinase (proB) (protein, UniProt Q9WYD0 1-353, looked up)
Glutamate 5-kinase: MIMKVVVKVGSNLLVGSSGLRKSYIAELCREVARLKSQGHEISIITSGARAAGFTYLGKGKRTQDLHIKQALCAVGQVQLMKVYENAFDFYGIKIAQILLTRDTFSNRKRYLNLRNTLIGLSEFDVVPIVNENDTVATEEITLGDNDTLAAMFSIAWDADFLVLFTTVDGVIDENGKLVERFDESVKLKDMGKSSWGTGGIRSKIESALMASRCGVKATICSGNDVSNLTRFVKGEPVGTVFEPQGRLKAKKAWIAFLSEPAGKIYVNKGAEEALKSGNSLLPVGVTGVEGTFDVGDVVEIVNEEGELVGRGIVNYSSSDLEKIAGHKSSDLKKILGYEGNKVVVHIDNMWVA

Assay: Fractionation of soluble and insoluble recombinant protein by cell lysis and centrifugation / SDS-PAGE
Type: physicochemical
Details: T. maritima proteins expressed in E. coli; SDS-PAGE of soluble and insoluble fractions
Method: E. coli strains MG1655 (F^−lam rph1) and KY1429 (F- araD139 Δ(argF-lac)169 lam flhD5301 fruA25 relA1 rpsL150 zhh50::Tn10 rpoH606(ts) deoC1) were transformed with expression plasmids encoding M36881 (LCK) or M86400 (PLA) for expression profiling. Cells were cultured at 37° C. in Luria Broth containing ampicillin. Protein expression was induced by addition of L-arabinose to a final concentration of 0.1% for 1 hour. KY1429 cells were cultured as above except initial growth was performed at 32° C. followed by a shift to 42° C. for non-permissive expression of rpoH606. Top10 cells (F^−-mcrA Δ(mrr-hsdRMS-mcrBC) φ80lacZΔM15 ΔlacX74 deoR recA1 araD139 Δ(ara-leu)7697 galU galK rpsL endA1 nupG) containing the ibpAB promoter fusion (pHK57), were transformed with expression constructs listed above. Beta-galactosidase assays were performed essentially as described by Miller (24). Fractionation of soluble and insoluble proteins was performed by centrifugation. Cultures were resuspended in 50 mM Tris pH 7.9, 50 mM NaCl, 1 mM MgCl2, 3 mM methionine and sonicated for 2 minutes on ice. Cell debris and insoluble protein aggregates were pelleted by centrifugation at 3000×g for 15 minutes. The soluble fraction was removed and the pellets resuspended in an equivalent volume of lysis buffer.

| Molecule | pre-determined expression characteristics |
| --- | --- |
| B1 | Soluble |
| B2 | Insoluble |
| B3 | Soluble |

Assay: pI of T. maritima proteins
Type: physicochemical, Thermotoga maritima
Details: not given

| Molecule | pI |
| --- | --- |
| B4 | 6.92 |
| B1 | 5.44 |
| B2 | 6.21 |
| B3 | 8.61 |
